Positions count from the first letter of the chain named.
B1: 107C6: monoclonal anti-IL-18 antibody; VH SEQ ID NO: 9, VK SEQ ID NO: 10 (antibody, V domains shown)
VH: QIQLVQSGPELKKPGETVKLSCRASGYTFTNYGMNWVKQAPGKGLKWMGWINTYSGVPTYADDFKGQFAFSLETSAATAFLQINNLKDEDTATYFCAREGYSTTRSMDYWGQGTSVTVSS
VL: DIVMSQSPSSLAVSAGEKVTMSCKSSQSLLDSRTRKNYLVWYQQKPGQSPKLLIYWASTRGSGVPDRFTGSGSGTDFTLTISSVQAEDLAVYYCKQSYNLRTFGGGTKLEIK
modifications: Antibody 107C6 VH sequence; Antibody 107C6 VK sequence
B2: 108F8: monoclonal anti-IL-18 antibody; VH SEQ ID NO: 11, VK SEQ ID NO: 12 (antibody, V domains shown)
VH: B1 VH with E10D, L11S
VL: B1 VL
modifications: Antibody 108F8 VH sequence; Antibody 108F8 VK sequence
B3: 132H4: monoclonal anti-IL-18 antibody; VH SEQ ID NO: 23, VK SEQ ID NO: 24 (antibody, V domains shown)
VH: EVKLVESGGGLVKPGGSLKLSCAASGFTFSNYAMSWVRQNPAKRLEWVATISSGGANIYYPDSVKGRFIISRDNARNTLYLQMSSLRSEDTAMYYCARGDYFNHFWFAYWGQGTLVTVSA
VL: DVLMTQTPLSLPVSLGDQASISCRSSQSIVHSNGNTYLEWYLQKPGQSPKFLIYKVSNRFSGVPDRFSGSGSGTDFTLKINRVEAEDLGIYYCFQGSHVPWTFGGGTKLEIK
modifications: Antibody 132H4 VH sequence; Antibody 132H4 VK sequence
B4: 109A6: monoclonal anti-IL-18 antibody; VH SEQ ID NO: 13, VK SEQ ID NO: 14 (antibody, V domains shown)
VH: EVQLQQSGAELVKPGASVKLSCTASGFKIKDTYIHWVIQRPAQGLEWIGRIDPANGNTIYGSKFQGKATLTADTSSNTAYIHLSSLTSGDSAVYYCAGYVWFAYWGQGTLVTVSA
VL: DVVMTQVPLSLPVSLGDQASISCRSSQRLVHSNGNTYLHWFLQKPGQSPKLLIYTVSNRFSGVPDRFSGSGSGTDFTLKISRVEAEDLGVYFCSQSTLVPWTFGGGTKLEIK
modifications: Antibody 109A6 VH sequence; Antibody 109A6 VK sequence
B5: 131B4: monoclonal anti-IL-18 antibody; VH SEQ ID NO: 18, VK SEQ ID NO: 19 (antibody, V domains shown)
VH: B4 VH with L4V, V37L, I38K, A42E, L70I, H82Q, S91T, Y95F
VL: DAVLTQTPLSLPVSLGDQASISCTSSQSLVHSNGNTYLHWYLQKPGQSPKLLIYKVSDRFSGVPDRFSGSGSGTDFTLMITRVEAEDLGVYFCSQSSLVPWTFGGGTKLEVK
modifications: Antibody 131B4 VH sequence; Antibody 131B4 VK sequence

How the values were obtained:
[1] = molecular target: T1, IL-18 previously complexed to IL-18BP (Homo sapiens, UniProt Q14116); assay: Luminex screening: monoclonal antibody binding on IL-18 previously complexed to IL-18BP; conditions: after third screening step, mRNA sequencing and clone dilution
T1 sequence (Q14116 37-193): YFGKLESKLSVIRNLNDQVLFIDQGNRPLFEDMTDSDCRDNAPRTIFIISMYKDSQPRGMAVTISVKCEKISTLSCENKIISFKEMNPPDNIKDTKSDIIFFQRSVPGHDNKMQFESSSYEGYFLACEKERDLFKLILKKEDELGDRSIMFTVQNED
T1 sequence (O95998 31-194 partner): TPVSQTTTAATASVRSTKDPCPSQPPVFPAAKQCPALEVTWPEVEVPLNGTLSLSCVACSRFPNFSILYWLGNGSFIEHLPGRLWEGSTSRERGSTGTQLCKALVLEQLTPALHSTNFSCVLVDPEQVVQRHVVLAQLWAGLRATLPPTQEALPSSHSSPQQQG
From the text: (§1) Mice were vaccinated aginst human interleukin-18 using a technology allowing immunization with properly folded proteins. Prior to immunization, genetically modified mice were selected for major histocompatibility complexes supposedly sensitive to IL-18 surface area epitopes binding IL-18BP. Following immunization, B cells were isolated from spleen and hybridized following standard hybridoma technology. Hybridoma were sorted onto microplates and then tested for expression of monoclonal anti-IL-18 antibodies targeting IL-18 epitopes included in IL-18BP binding site. The screening was performed in 3 sequential and selective steps: • First step. […] Potential antibodies targeting IL-18 on IL-18BP binding site were rescreened in competition with IL-18BP. For this, monoclonal antibodies were bound to Luminex beads carrying IL-18. The complex was then exposed to biotinylated IL-18BP in order to identify interference to previously identified anti-IL-18 antibodies (see Table 1, Column #2). […] A third screening program was undertaken with Luminex beads linked to IL-18BP and then complexed to interleukin-18, assuring the presentation of properly folded recombinant IL-18 to positive antibody candidates.

[2] = molecular target: T2, IL-18 previously complexed to monoclonal antibody (Homo sapiens, UniProt Q14116); assay: Luminex screening: biotinylated IL-18BP binding on IL-18 previously complexed to monoclonal antibody; conditions: Column #2
T2 sequence (Q14116 37-193): T1 sequence (Q14116 37-193)
From the text: as §1

human interleukin-18 = molecular target: T3, human interleukin-18 (Homo sapiens, UniProt Q14116); assay: Luminex screening: monoclonal antibodies binding on IL-18; conditions: IL-18 on Luminex beads
T3 sequence (Q14116 37-193): T1 sequence (Q14116 37-193)
From the text: as §1

Molecule	Binding to IL-18 on the IL-18BP binding site [1]	IL-18BP binding on IL-18 previously complexed to monoclonal antibody, Fluorescence intensity [2]	Monoclonal antibodies binding on IL-18, Fluorescence intensity (human interleukin-18)
B1	confirmed to bind to IL-18 on the IL-18BP binding site	1 389	26 250
B2	confirmed to bind to IL-18 on the IL-18BP binding site	1 292	25 126
B3	confirmed to bind to IL-18 on the IL-18BP binding site	1 488	23 839
B4	confirmed to bind to IL-18 on the IL-18BP binding site	913	25 848
B5	confirmed to bind to IL-18 on the IL-18BP binding site	1 656	24 838

— patent US11530263B2, “IL-18 binding protein (IL-18BP) in inflammatory diseases” (AB2 BIO SA, priority 2013, dated 2022)
